± gives the uncertainty stated by the source.

This passage reports amyloid nucleation score results from the supplement of paper PMC12042874.

A short description of this data set: amyloid nucleation score (Sup35N fusion, yeast selection) (log enrichment); library NNK2; higher = more nucleation; inactive = no reads after selection. The essentials: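 Output and input plasmid inserts were sequenced by Illumina after psi-negative yeast carrying Sup35N fused to peptides of 20 random codons had been induced 24 hours with 100 μM copper sulfate and grown 7 days at 30°C on medium lacking adenine and uracil. The nucleation score is the DiMSum log enrichment of output over input reads, centred on the mode score of non-aggregating sequences. Sequences with under 100 input reads were excluded.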

SSVISLNILFFMGEPENSLL registered an amyloid nucleation score of 6.424 ± 0.05.

VYFSSSIADKFYNLISVRFI displayed an amyloid nucleation score of 0.833 ± 0.8.

IKHKLWRAYYCSESTLSVLS had an amyloid nucleation score of -1.03 ± 0.28.

With CDLIASQSVIAIVNIMIRHV, the amyloid nucleation score was 6.63 ± 0.062.

In the case of TMSFFLGSLEVL, the amyloid nucleation score was -1.09 ± 0.48.

PSAVRTILVTAI registered an amyloid nucleation score of -0.447 ± 0.35.

As for SASWGLQSYNSRCGRLTNRF, the amyloid nucleation score came out at 0.524 ± 0.81.

ILSLMLRSVWRSVLLVLQ: the amyloid nucleation score result is “inactive”.

In turn, RYDSMIHRSVGWPGSYNKGH returned an amyloid nucleation score of -0.287 ± 0.31.

Turning to FFCMA, the amyloid nucleation score amounted to 5.48 ± 0.056.

SHMHEEHIVEECTCSTPRRK showed an amyloid nucleation score of 1.32 ± 0.44.

The substance YSIYEYG came in with an amyloid nucleation score of 1.41 ± 0.15.

Substance IYPSVRYPMYAITKRYSRVG yielded an amyloid nucleation score of -0.769 ± 0.28.

Regarding TSSFIRLNYSNALLNKFWSN, the amyloid nucleation score was -1.99 ± 0.75.

In the case of SALCNDVVRPMMVFSENCAK, the amyloid nucleation score was 0.225 ± 0.31.

For the substance FGYFNVHSKSSGIMKWCGQC, the amyloid nucleation score was -0.612 ± 0.54.

On to VYYIYQLEWSDVFFSAYGVH, for which the amyloid nucleation score was -0.072 ± 0.76.

In turn, VTFCMQVRAG showed an amyloid nucleation score of 0.524 ± 0.33.

With SSCGYLKTTFSKLSEAHCYR, the amyloid nucleation score was -1.45 ± 1.1.

As for IANRGNAKHVRWICMMHHRS, the amyloid nucleation score came to 0.479 ± 0.41.

With NVDWCCQICSCFTRIFELLM, the amyloid nucleation score came out at 2.21 ± 0.23.

The substance FRGIPCLCHVIM registered an amyloid nucleation score of 5.81 ± 0.081.

Consider SNGFREYCATICNGTGDRRG, for which the amyloid nucleation score turned out to be 0.651 ± 0.62.

FCCHHCITGITEKAN: the amyloid nucleation score was determined as 0.674 ± 0.36.

Regarding GAVGARLAINGSSRWMCSWY, the amyloid nucleation score came to 2.39 ± 0.1.

As for VDSRGFHYDL, the amyloid nucleation score entry was “inactive”.

Regarding DLIYGGYST, the amyloid nucleation score result is “inactive”.

The substance PSNKLKWLCLDV had an amyloid nucleation score of 0.576 ± 0.43.

As for LPGQGIWWHICIEG, the amyloid nucleation score was 1.24 ± 0.14.

IMRCGMLVASKFQGEGRNRT: the amyloid nucleation score turned out to be 0.747 ± 0.43.

For the substance SSIRLFCFTMAHVHMTDSHD, the amyloid nucleation score was 4.53 ± 0.11.

Turning to VGFISTMWHMYSELLGQINV, the amyloid nucleation score is -0.499 ± 0.76.

On to YRTCNIDGL, for which the amyloid nucleation score result was “inactive”.

The substance CDFMYRLMSTYTHTFLVSLR showed an amyloid nucleation score of 1.41 ± 0.14.

In turn, YRLAWGH registered an amyloid nucleation score of -0.363 ± 1.1.

RSLDQSIVNRVVVYFSGWCV showed an amyloid nucleation score of 3.62 ± 0.073.

In turn, LYLYPAMFVSWLSGLPTRFC yielded an amyloid nucleation score of -0.406 ± 1.1.

FSTHDIGSRKWARQYLYVVH: the amyloid nucleation score worked out at 0.334 ± 0.31.

For the substance SYHGVRLFDIHIGSLKFQQ, the amyloid nucleation score is 7.549 ± 0.054.

FYCRVFTLSGFVRIWGDC came in with an amyloid nucleation score of -0.562 ± 1.1.

Substance SISTSTGLRRHPYNGPKIGM had an amyloid nucleation score of -0.221 ± 0.32.

MRSTALYDILRRPWFNFSAY gave an amyloid nucleation score of -0.014 ± 0.76.

The substance TYGTTELVLHRTEINMMRNQ showed an amyloid nucleation score of 3.25 ± 0.12.

As for DKREQRLRQSQILMCGDGGF, the amyloid nucleation score stood at 0.157 ± 0.76.

Regarding SYGWFCSRVIFWRSGNFYWK, the amyloid nucleation score entry is “inactive”.

Substance CGWGYLTCPSRTVVWARAGV came in with an amyloid nucleation score of 1.35 ± 0.25.

As for VLTFRRMHD, the amyloid nucleation score worked out at 0.398 ± 0.65.

For the substance RRKHLWRQRLWTR, the amyloid nucleation score is -0.425 ± 0.63.

The substance IQVMSDMFKCDVTNVMGRRG displayed an amyloid nucleation score of 2.99 ± 0.094.

HFMFVSNRVGWVGLLQNYSR: the amyloid nucleation score was 6.657 ± 0.066.

The substance ETTNTQVNAIVRNFGQ yielded an amyloid nucleation score of 0.002 ± 0.55.

As to SQTMVITFFSRCDVQIVKIN, the amyloid nucleation score turned out to be 5.583 ± 0.03.

In turn, IESPLIEFTIDCW yielded an amyloid nucleation score of -0.025 ± 0.79.

Turning to YLRTYLW, the amyloid nucleation score was -0.208 ± 0.49.

On to NSGSYTSSFNDLVDTLSVLS, for which the amyloid nucleation score result was “inactive”.

With PVNPQEFLSALSSRYEVKSW, the amyloid nucleation score was -0.095 ± 1.1.

Regarding MMNTKFINWDKMLDIGYRAD, the amyloid nucleation score amounted to 0.877 ± 0.8.

In the case of KIIISYGQCK, the amyloid nucleation score came out at 2.71 ± 0.2.

IEFWDYKYVLVSSFVFKHDV: the amyloid nucleation score was -0.069 ± 0.65.

In turn, AFAVSSLESGWRRRTSLEWL returned an amyloid nucleation score of 0.106 ± 0.55.

As for RNHVAHH, the amyloid nucleation score turned out to be 2.17 ± 0.21.

As for VWMYITSW, the amyloid nucleation score is -1.12 ± 0.55.

In turn, IIMPF registered an amyloid nucleation score of -0.682 ± 0.64.

In the case of MVLLCIFQ, the amyloid nucleation score stood at 8.273 ± 0.064.

VCYYMWWFVYKHRSWQSGSW yielded an amyloid nucleation score of -0.639 ± 0.74.

Take SCCEGISSVNNLFMRRRGIE: the amyloid nucleation score stood at 0.201 ± 0.53.

With MRSFGPIFSVLL, the amyloid nucleation score was -0.067 ± 0.34.

On to YALWFVIWEVGRGFLVVISF, for which the amyloid nucleation score result is “inactive”.

In turn, IKVAEGSLVCARYGRMVRLE gave an amyloid nucleation score of 4.92 ± 0.053.

KCVVKELYWLWFHLSSVNLY displayed an amyloid nucleation score of -1.23 ± 1.1.

LMIVKMTMFDATGHVGFLMV showed an amyloid nucleation score of 2.82 ± 0.071.

HKGCGNSCIWHYFGNFWRFR came in with an amyloid nucleation score of -0.658 ± 0.56.

TDLYCFSSI: the amyloid nucleation score is -1.29 ± 1.

As to SPSLVTNFVENGFFGVDLLS, the amyloid nucleation score result is “inactive”.

In turn, LCFATYVGTGCVLGLPGYHK displayed an amyloid nucleation score of 4.59 ± 0.066.

For NRDVFWRFLVTTVVYELSSK, the amyloid nucleation score entry is “inactive”.

In the case of IKWRSFPDSYLENFEFI, the amyloid nucleation score is -1.6 ± 1.1.

In turn, MLSENADTRCLRMFVSDCQR yielded an amyloid nucleation score of 1.26 ± 0.16.

Substance CSYPNTLNCELMGILCYVGN came in with an amyloid nucleation score of 6.47 ± 0.024.

SFEFVACVVMYMCCRTMFIL displayed an amyloid nucleation score of -0.164 ± 0.24.

In turn, IVRRGAYSTGWMVMMLLQSL yielded an amyloid nucleation score of 0.859 ± 0.8.

As to CVKQWRTIIVTLYLGTLPK, the amyloid nucleation score was 4.21 ± 0.059.

The substance RIIKYIMNGRRFVVLWRVFS returned an amyloid nucleation score of 5.342 ± 0.052.

In the case of TDYLGLWPWVSSSLGRVVTW, the amyloid nucleation score stood at 1.22 ± 0.45.

Consider LVFRGAVCDITRAG, for which the amyloid nucleation score is -0.682 ± 0.76.

The substance FWYCTHTTSYDGTLNSEWVT had an amyloid nucleation score of 0.307 ± 0.26.

FPWQSSDYFWNHARRS yielded an amyloid nucleation score of -0.043 ± 0.6.

Substance FYKNAP registered an amyloid nucleation score of -1.06 ± 1.1.

With NRRGANCVQS, the amyloid nucleation score was -0.372 ± 0.39.

On to DYSGYHFMEQVP, for which the amyloid nucleation score was -0.363 ± 0.33.

For the substance DLIGPYRVLRFCRWV, the amyloid nucleation score amounted to 2.8 ± 0.099.

In the case of EYEYGGYNSMNLNYIVARSE, the amyloid nucleation score is 0.218 ± 0.48.

In turn, CDSAAFRPYLFSAENLSLYK registered an amyloid nucleation score of 0.53 ± 0.66.

On to ERMSLMGWDFIKCRISLAMS, for which the amyloid nucleation score was -0.021 ± 0.65.

In the case of CHGRGISYQLLQNRNQQP, the amyloid nucleation score was 0.08 ± 0.79.

GSEMIFYIAVVALCLCIPEG had an amyloid nucleation score of 1.21 ± 0.22.

Substance FFKLNVRERYWLVKGKSRFR displayed an amyloid nucleation score of 2.96 ± 0.087.

With VYMHASCSERSMDESRNRVD, the amyloid nucleation score result is “inactive”.

The substance SMAFREILLLMGSMLSCIRS had an amyloid nucleation score of -0.956 ± 1.

EDAFMSFCMVRLWDHF had an amyloid nucleation score of -0.089 ± 1.1.

SGLLVSNKFWGICTNYFGQR came in with an amyloid nucleation score of 6.684 ± 0.045.

In turn, SVDHLDSVFDYFHVRYKFIS returned an amyloid nucleation score of -1.09 ± 1.1.

The substance VVCEASTCDMLESEWFWAEF showed an amyloid nucleation score of 0.226 ± 0.23.

In turn, GLFVRQGGLRVCWVLPVHAA came in with an amyloid nucleation score of 0.645 ± 0.41.

As to LGFDASLKLFLVQQGLSN, the amyloid nucleation score is -0.341 ± 0.33.

The substance CRGDRFSRSST yielded an amyloid nucleation score of -0.217 ± 0.79.

DRFRYICSYVENSDYLLRCL: the amyloid nucleation score entry is “inactive”.

In the case of VPNFRS, the amyloid nucleation score turned out to be 4.16 ± 0.037.

QKGHSRLQPWSLSPYVYRPL had an amyloid nucleation score of 0.556 ± 0.42.

Substance QVAIPHHTRIETASARRVHT showed an amyloid nucleation score of 1.09 ± 0.51.

With SFDLAVTECIALCFRCYQVF, the amyloid nucleation score is -1.04 ± 0.39.

As to HLTAYCMSTHRQACDVDFDF, the amyloid nucleation score was -0.067 ± 1.1.

Substance DHLYMYWGAQ returned an amyloid nucleation score of 1.02 ± 0.37.

SLTAVWDDLAMLKLWAEMEM returned an amyloid nucleation score of 0.053 ± 1.1.

As for RSCFPCSCK, the amyloid nucleation score was determined as 0.472 ± 0.31.

NWWYSRSRPHMGSSISFSEV had an amyloid nucleation score of -0.37 ± 0.41.

Substance HSFVNNEKASQMSSCETGGS yielded an amyloid nucleation score of -0.509 ± 0.41.

Turning to SYNFM, the amyloid nucleation score result was “inactive”.

Substance LRFMNPRSALRYTKVSCTGN yielded an amyloid nucleation score of -0.587 ± 0.54.

As to FKGVCCMHNELASIDQWVGG, the amyloid nucleation score came to 0.192 ± 0.56.

For YFFSISWTCYFR, the amyloid nucleation score is 3.27 ± 0.044.

NNCVQTGSGGGGRCLRDTCG had an amyloid nucleation score of 3.8 ± 0.085.

As to YWFQKLEGSRHDMV, the amyloid nucleation score is -0.121 ± 1.1.

The substance ACTLCGVWSVFTIFARHKIR came in with an amyloid nucleation score of 3.1 ± 0.18.

In turn, DSLINFRLKVPTMLCMFCWI displayed an amyloid nucleation score of 0.401 ± 0.62.

Consider CVMMSQAFF, for which the amyloid nucleation score turned out to be 5.22 ± 0.084.

IWGGFYS registered an amyloid nucleation score of -1.29 ± 0.75.

IFASRSGFLSIRQLSHPARR had an amyloid nucleation score of 3.35 ± 0.078.

In turn, GLNVLCSLAIKAKLDGRWRH showed an amyloid nucleation score of 9.371 ± 0.072.

For SMNFRTTSSHSDILYPALC, the amyloid nucleation score amounted to 0.24 ± 0.48.

The substance QLFVMADNVRESSKTLRTIW yielded an amyloid nucleation score of -0.513 ± 0.35.

PDYYYMTTLLYCRSSKSLKR: the amyloid nucleation score is -1.46 ± 1.1.

Consider NSNFRLTCTFSSMHYKLARG, for which the amyloid nucleation score is 2.9 ± 0.21.

For YHSFLWKINSCAVMMEDSTG, the amyloid nucleation score turned out to be 0.811 ± 0.67.

Turning to YSYSIRLRCFASRYIFVRVR, the amyloid nucleation score was 0.436 ± 0.66.

Substance LEVKEVSEFLRLTYMYL came in with an amyloid nucleation score of -1.67 ± 0.62.

Substance NNWYILPFAGFWDFGA returned an amyloid nucleation score of 5.341 ± 0.03.

Substance LLLLWYRNQPHITDAFRQEL came in with an amyloid nucleation score of 0.733 ± 0.44.
